Experimental data as given in publication PMC12675262 (Journal of Experimental Botany, 2025).

Target: the molecule itself
Assay: SEC

B1: Synechocystis sp. PCC 6803 fructose-1,6-bisphosphatase (FBPase; slr0952) (enzyme, UniProt P74324 1-347, looked up)
chain: MTVSEIHIPNSLLDRDCTTLSRHVLQQLNSFGADAQDLSAIMNRIALAGKLIARRLSRAGLMADVLGFTGETNVQGESVKKMDVFANDVFISVFKQSGLVCRLASEEMEKPYYIPENCPIGRYTLLYDPIDGSSNVDINLNVGSIFAIRQQEGDDLDGSASDLLANGDKQIAAGYILYGPSTILVYSLGSGVHSFILDPSLGEFILAQENIRIPNHGPIYSTNEGNFWQWDEALRDYTRYVHRHEGYTARYSGALVGDIHRILMQGGVFLYPGTEKNPDGKLRLLYETAPLAFLVEQAGGRASDGQKRLLDLIPSKLHQRTPAIIGSAEDVKLVESFISDHKQRQGN
stoichiometry N: 4
